From patent publication US20260226142A1 (MAX PLANCK GESELLSCHAFT ZUR F RDERUNG DER WISSENSCHAFTEN E V, published 2026)
Changes are numbered by the printed parent chain. Like-named read-outs stand apart in the source and are kept apart here.

B1: Ma8A05 (VHH)
VHH: QVQLVESGGGLVQPGGSLRLSCAASPASGFTLDLYTIAWFLQAPGKEREGVSAISLSDEITYYSDAVKGRFTISRDSAKNTVFLQMDRLKPEDTGVYYCAIGAFDFILKEADADYWGQGTQVTVSS
B2: Ma31B06 (VHH)
VHH: B1 VHH with E6Q, S17T
B3: Ma8D05 (VHH)
VHH: B1 VHH with A66T
B4: Ma31A12 (VHH)
VHH: B1 VHH with P26A, A111V
B5: Bm28C04 (VHH)
VHH: QVQLVESGGGSVQPGNSLRLSCKVSGRTFNSYALGWFRRRPGDQRDFVASIIRSTGGTSYADSVKGRFTISYDNVQNTVDLQMNSLEPEDTAIYYCAGGDGHIYAFGYDYWGQGTQVTVSS
B6: Bm28H07 (VHH)
VHH: B5 VHH with N84S
B7: Ma7B01 (VHH)
VHH: QVQLVESGGGLVQAGDSLSLSCAASGRTFSNYAMGWFRQAPGKERHFVAVINQIGDSTWYPDFAKGRFTISRDNAKNTLYLQMNSLKPEDTAVYYCAATDPRSYWRIWPHEYGYWGQGTQVTVSS
B8: Ma7E01 (VHH)
VHH: B7 VHH with L11S, A23V, G26E, Q53P, D56E, S57E, P109E, Y112F, G113D
B9: Bm28F09 (VHH)
VHH: QVQLVESGGGLVEPGGSLTLSCAASGFTSKNYYIGWFRQAPGKYREGVASIGASDGSLYIADSVKGRFTISSDNAKNTVYLHPRNLKPEDSGVYYCATGRDSWRWVPSAMDYWGKGIQVTVSS
B10: Ma8H03 (VHH)
VHH: QVQLVESGGGLVHPGGSLRLSCAASGSSLDHYVIGWFRQVPGKQREGISCISSGGSTNYADSVKGRFTVSRDNVKSTVYLQMNSLAPDDSAEYYCAAQRNLGNFCVLGWLEYDDWGQGTQVTVSS
B11: Bm28H01 (VHH)
VHH: QVQLVESGGGLVQPGGSLTLSCAASGFTLGDRTLGWFRQVAGKQREGVASIASGVLSAYIADSVKGRFTISRDDAKNTIYLHMNNLKPDDTGVYYCARGVDSWRWVPSTMDLWGKGILVTVSS
B12: Ma7C02 (VHH)
VHH: QVQLVESGGGLVQAGGSLRLSCAASGRTFSDYAMGWFRQAAGKDRDFVAVITRSGDSTYYPDSTKGRFTISRDNAKNTMYLQMNSLKPEDTARYYCAATDPTNYWRIWEHEFDYWGQGTQVTVSS
B13: Ma7A07 (VHH)
VHH: QVQLVESGGGLVQPGGSLRLSCAASGFTLGDYTLGWFRQAPGKQREGVSSIASSALSIYIADSVKGRFTISRDDAKNTIYLHMNNLKPEDTGVYYCARGVDSWRWVPSAMDLWGKGTLVTVSS
B14: Ma7A08 (VHH)
VHH: B13 VHH with R19T, A55V, I58V
B15: Ma7B12 (VHH)
VHH: B13 VHH with D74N, I79V, V100I, S102N, L118Q
B16: Ma7B03 (VHH)
VHH: B13 VHH with G30S, D31N, T33Y, L34V, A52G, A55D, D74N, E89D, V100T, L118Q
B17: Ma8D07 (VHH)
VHH: QVQLVESGGGLVQPGGSLRLSCAASESIYKLNAMGWYRQAPGKELELVTTISSGGSTFYTDPVKGRFTISTDNAKNTVYLQMRSLKPEDTAMYYCAANPTYNHYSARGQGTQVTVSS
B18: Ma8D08 (VHH)
VHH: B17 VHH with L11F, P14A
B19: Ma7D06 (VHH)
VHH: QVQLVESGGGLVQAGGSLRLSCAASGSISGIDTMAWFRQIPGKDREFVAVIKWAAGSTWYPDFVKGRFTVSRDNAKNMVYLQMDSVKPEDTAIYYCAAAAGEKYYYRLFPYEYDYWGQGTQVTVSS
B20: Bm28A12 (VHH)
VHH: QVQLVESGGGLVQAGGSLRLSCVVSGRALSSYNLAWFRQSPGKEREWIATIMPSADKAHYPDFLEGRFTISGDNTENTLYLQMNSLKPEDTAIYYCAAREPSYYHALFEYEYNLWGQGTQVTVSS
B21: Ma8E03 (VHH)
VHH: QVQLVESGGGLVHPGGSLRLSCAASGSSLDHYVIGWFRQVPGKEREGVSCISRSGGSTNYADSVKGRFTVSRDNVKNMVYLQMNSLEPEDSAEYYCAAQRNLGNFCVLGWLEYDDWGQGTQVTVSS
B22: Ma8G02 (VHH)
VHH: B21 VHH with H13L, V40Y, L111V
B23: Ma7F02 (VHH)
VHH: QVQLVESGGGLVQAGGSLRLSCTVSGSIDSLHTMGWFRQAPGKKRDFVAVVSWSGGNTYYPDYAKGRFTISRDNTKNTVYLQMNSLKPEDTAIYYCAAESGSGNYWKIWEHEFDSWGQGTQVTVSS
B24: Bm28C09 (VHH)
VHH: QVQLVESGGSVVQAGGSLRLSCTASGRNFNSYAMGWFRRPPGEQRDFIAAIIRSTGKTTYADSDSVKGRFTISKDSSGNTVYLQMNNLKPEDTAIYYCAGGDAGPYAFGYDYWGQGTQVTVSS
B25: Ma7C11 (VHH)
VHH: QVQLVESGGGLVRAGGSLRLSCAASGSISSVNGMGWFRQAPGKERLFVAQVSLLDSSTYYADSVKGRFTISRDDAKNTMYLQMNNVRPEETAVYYCAATKLRIGTAFSSEYDYWGQGTQVTVSS

Columns and labels:
[1] = target: T1, Cys-HLA (Staphylococcus aureus)
[2] = target: T1, Cys-HLA; remark: listed apart in the source
[3] = target: T1, Cys-HLA; remark: listed apart in the source
[4] = target: T1, Cys-HLA; remark: listed apart in the source

| Binder | Kd [1] [nM] | other results |
| --- | --- | --- |
| B1 | 0.6 | – |
| B2 | 0.075 | – |
| B3 | 1 | – |
| B4 | 0.065 | – |
| B5 | ≤ 0.01 | Kd [2]: 0.04 nM; Kd [3]: ~0.05 nM |
| B6 | ≤ 0.01 | – |
| B7 | 0.05 | – |
| B8 | ≤ 0.01 | – |
| B9 | 0.15 | – |
| B10 | ≤ 0.01 | Kd [4]: ≤ 0.001 nM |
| B11 | ≤ 0.01 | – |
| B12 | 0.09 | – |
| B13 | ≤ 0.01 | Kd [4]: 0.006 nM |
| B14 | ≤ 0.01 | – |
| B15 | ≤ 0.01 | – |
| B16 | ≤ 0.01 | – |
| B17 | 0.8 | – |
| B18 | 1 | – |
| B19 | 0.06 | – |
| B20 | ≤ 0.01 | Kd [2]: 0.13 nM |
| B21 | ≤ 0.01 | – |
| B22 | ≤ 0.01 | – |
| B23 | 0.04 | Kd [3]: ~0.05 nM |
| B24 | ≤ 0.01 | Kd [2]: 0.015 nM |
| B25 | 0.3 | – |
